Binding result and EC50 data for two molecules are collected here from paper PMC8103725 (FASEB BioAdvances, 2021).

Sequences and labels used below:
B1: biotinylated HEG1 cytoplasmic tail (a.a. 1274–1381) (domain or fragment, UniProt Q9ULI3 1274-1381, looked up)
chain: RKNKNDISKLIFKSGDFQMSPYAEYPKNPRSQEWGREAIEMHENGSTKNLLQMTDVYYSPTSVRNPELERNGLYPAYTGLPGSRHSCIFPGQYNPSFISDESRRRDYF
modifications: biotin on the in vivo biotinylation peptide tag
B2: His6-EGFP-KRIT1 (WT) FERM domain (417–736) (domain or fragment, human, UniProt O00522 417-736, looked up)
chain: KPYEKVRIYRMDGSYRSVELKHGNNTTVQQIMEGMRLSQETQQYFTIWICSENLSLQLKPYHKPLQHVRDWPEILAELTNLDPQRETPQLFLRRDVRLPLEVEKQIEDPLAILILFDEARYNLLKGFYTAPDAKLITLASLLLQIVYGNYESKKHKQGFLNEENLKSIVPVTKLKSKAPHWTNRILHEYKNLSTSEGVSKEMHHLQRMFLQNCWEIPTYGAAFFTGQIFTKASPSNHKVIPVYVGVNIKGLHLLNMETKALLISLKYGCFMWQLGDTDTCFQIHSMENKMSFIVHTKQAGLVVKLLMKLNGQLMPTERNS

Test [1] concerns the target B2. Put plainly: flow cytometry on beads. (A flow cytometer gives signals particle by particle.)
The target in test [2] is B1. Nature of the test: flow cytometry on beads.

On to B1, for which, in test [1], the binding result was “binds”. Take B2: the EC50 (as a rule, the concentration needed to bring the measured effect to its halfway point) in test [2] was 32.4 nM.
